Laboratory results from patent publication US20230192853A1 (Genentech, published 2023).

Tests used:
[1] = target: T1, huCD8a-Fc (C-terminal hFc-tagged human CD8α receptor) (human, UniProt P01732 22-182); assay: SPR
T1 construct: the whole entry is named; also called CD8α-Fc; CD8α-hFc; not shown: human Fc tag at the C-terminus

[2] = target: T2, one-armed single chain huCD8α/huCD8β-Fc (human, UniProt P10966 22-170); assay: affinity measurement, method not named in the sentence (SPR per paragraph 284)
T2 construct: the whole entry is named; also called Human CD8αβ; CD8αβ-Fc; not shown: linker between CD8α and CD8β; not described; one polypeptide chain of an Fc (captured with an anti-HuIgG1 Fc kit); second Fc chain without fusion (one-armed format)
T2 sequence (P10966 other isoform, or with tags, fused parts or gaps): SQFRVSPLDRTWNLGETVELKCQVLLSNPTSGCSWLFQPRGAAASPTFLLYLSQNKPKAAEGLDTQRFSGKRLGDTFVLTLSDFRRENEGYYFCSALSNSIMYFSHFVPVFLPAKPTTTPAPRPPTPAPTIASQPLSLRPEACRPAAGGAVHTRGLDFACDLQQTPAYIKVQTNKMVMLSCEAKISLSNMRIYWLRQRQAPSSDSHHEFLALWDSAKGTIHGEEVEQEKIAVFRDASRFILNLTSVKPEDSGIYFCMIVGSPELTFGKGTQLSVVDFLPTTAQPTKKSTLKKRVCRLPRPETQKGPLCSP

[3] = target: T3, human CD8 on cells (HPBALL cells, TALL1 cells, CD8+ T cells of human whole blood and PBMCs) (human, UniProt P01732 22-234); assay: PET MIP of TALL1 tumor xenografted mice
T3 construct: also called huCD8
T3 sequence (P01732 22-234 limits assumed): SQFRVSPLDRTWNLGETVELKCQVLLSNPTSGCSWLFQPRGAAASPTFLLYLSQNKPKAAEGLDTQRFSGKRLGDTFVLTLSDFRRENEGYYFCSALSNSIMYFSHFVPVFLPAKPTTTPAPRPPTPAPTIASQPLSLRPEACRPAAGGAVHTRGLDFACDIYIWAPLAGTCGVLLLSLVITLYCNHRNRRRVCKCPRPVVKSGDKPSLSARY

[4] = target: T4, rhesus monkey CD8 in CD8-rich tissues (in vivo) (rhesus monkey, UniProt P01732 23-235 (human entry)); assay: PET imaging in rhesus monkey
T4 construct: the target was seen by PET in lymph nodes, thymus and spleen; also called rhesus CD8
T4 sequence (P01732 other isoform, or with tags, fused parts or gaps limits assumed): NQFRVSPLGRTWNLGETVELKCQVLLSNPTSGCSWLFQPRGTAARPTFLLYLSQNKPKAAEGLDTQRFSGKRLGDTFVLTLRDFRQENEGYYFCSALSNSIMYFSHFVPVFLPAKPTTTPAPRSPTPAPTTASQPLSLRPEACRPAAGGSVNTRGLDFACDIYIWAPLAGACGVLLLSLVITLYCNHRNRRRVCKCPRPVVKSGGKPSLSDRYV
Protocol: Imaging experiments were performed with ¹⁸F-anti-CD8 VHH in a rhesus monkey to determine whether uptake could be detected in tissues that are normally CD8-rich. A rhesus monkey (2.5 kg) was injected with 64 micrograms ¹⁸F-anti-CD8 VHH containing a 1.2 mCi radiation dose.

[5] = target: T2, one-armed single chain huCD8α/huCD8β-Fc; assay: SPR, Biacore T200, 37°C, CD8αβ-Fc captured, VHH as analyte
Protocol: (§1) The binding affinity for each VHH variant to both human (a one-armed single chain huCD8α/huCD8β-Fc) and cynomolgus monkey (a one-armed single chain cynoCD8α/cynoCD8β-Fc) were determined by Surface Plasmon Resonance (SPR). SPR experiments were carried out on the Biacore T200 (GE Healthcare) at 37° C. using HBS-P+ (GE Healthcare) running buffer. 1.5 μg/mL of CD8αβ-Fc was captured using an anti-HuIgG1 Fc capture kit (GE Healthcare) and monomeric VHHs were added as the analyte in solution at a flow rate of 100 μL/min. The VHH was titrated using a dilution series from 100-0 nM. Sensorgrams were fit to a 1:1 Langmuir model to identify kinetic parameters, including KD, kₒₙ and koff.

[6] = target: T5, one-armed single chain cynoCD8α/cynoCD8β-Fc (cynomolgus monkey); assay: as above
T5 construct: the whole entry is named; also called Cyno CD8αβ; CD8αβ-Fc; not shown: linker between CD8α and CD8β; not described; one polypeptide chain of an Fc (captured with an anti-HuIgG1 Fc kit); second Fc chain without fusion (one-armed format)
T5 sequence (P01732 other isoform, or with tags, fused parts or gaps): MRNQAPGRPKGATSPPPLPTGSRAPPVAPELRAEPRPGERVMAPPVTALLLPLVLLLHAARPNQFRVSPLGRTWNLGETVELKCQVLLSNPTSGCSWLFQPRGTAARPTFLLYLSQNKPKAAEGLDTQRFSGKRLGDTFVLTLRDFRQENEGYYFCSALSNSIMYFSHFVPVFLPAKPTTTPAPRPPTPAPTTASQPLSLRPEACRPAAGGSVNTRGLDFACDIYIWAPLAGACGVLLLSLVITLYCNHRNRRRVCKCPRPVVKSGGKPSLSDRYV
Protocol: as §1

T1 sequence (P01732 22-182 limits assumed): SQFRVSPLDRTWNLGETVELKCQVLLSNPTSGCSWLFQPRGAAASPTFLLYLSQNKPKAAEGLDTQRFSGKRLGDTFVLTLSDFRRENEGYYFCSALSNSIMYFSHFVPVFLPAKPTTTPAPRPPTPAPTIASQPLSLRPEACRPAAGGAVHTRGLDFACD

Row | Kd [5] [pM] | koff [5] [s⁻¹] | kon [5] [M⁻¹ s⁻¹] | Kd [6] [pM] | koff [6] [s⁻¹] | kon [6] [M⁻¹ s⁻¹] | Binder | other results
1 | – | – | – | – | – | – | 2C8 VHH (llama anti-CD8 VHH wt2C8) (VHH, Monomeric VHH; VHHs were made both with a C-terminal His tag and tagless; also called 2C8.1-H; wild-type 2C8) VHH: EVQLVESGGGLVQAGGSLRLSCAASGFTFDDYAIGWFRQAPGKGREGVLCIRIFDRHTYSADSVKGRFTISSDNAQNTVYLHMNSLKPEDTAVYYCAAGSFWACTRPEGAMDYWGKGTQVTVSS | binding result [1]: binds
2 | – | – | – | – | – | – | 2C8 with the A99G and A100fD mutations (VHH, name in Kabat numbering) VHH: EVQLVESGGGLVQAGGSLRLSCAASGFTFDDYAIGWFRQAPGKGREGVLCIRIFDRHTYSADSVKGRFTISSDNAQNTVYLHMNSLKPEDTAVYYCAAGSFWGCTRPEGDMDYWGKGTQVTVSS | fold improvement of affinity against the parental clone 2C8 [2]: ~10 fold
3 | – | – | – | – | – | – | 18F-control VHH (18F-AlF-RESCA-modified 2C8v145) (VHH, RESCA chelator (Formula (I)) carrying [18F]-aluminum fluoride; site not stated) VHH: EVQLVESGGGLVQPGGSLRLSCAASGFTFDDYAIGWFRQAPGKGREGVACIRIFDRHTYYADSVKGRFTISSDNSKNTVYLQMNSLRAEDTATYYCAAGFFSGCTRPEGDMDYFGQGTLVQVQS | binding result [3]: no binding; binding result [4]: no binding
4 | 49.7 | 0.000845 | 1.7e+07 | 137 | 0.0019 | 1.39e+07 | 2C8v144 VHH (VHH, also called hu2C8v144) VHH: EVQLVESGGGLVQPGGSLRLSCAASGFTFDDYAIGWFRQAPGKGREGVACIRIFDRHTYYADSVKGRFTISSDNSKNTVYLQMNSLRAEDTATYYCAAGSFWGCTRPEGDMDYFGQGTLVQVQS | –
5 | 132 | 0.00176 | 1.34e+07 | 344 | 0.0037 | 1.09e+07 | 2C8v142 VHH (VHH, also called hu2C8v142) VHH: EVQLVESGGGLVQPGGSLRLSCAASGFTFDDYVIGWFRQAPGKGREGVACIRIFDRHTYYADSVKGRFTISSDNSKNTVYLQMNSLRAEDTATYYCAAGSFFGCTRPEGDMDYFGQGTLVQVQS | –
